One data set addresses chicken Otop3 (chicken). As to the kind of experiment: cryo-EM structure.
The data set “cryo-EM structure” concerns the molecule itself. The data set is described as follows: cryo-EM structure.

For chicken Otop3 (natural protein), the stoichiometry N (usually the number of molecules, sites or subunits per partner or assembly) in the data set with chicken Otop3 (chicken) amounted to 2.

B1: zebrafish Otop1 (natural protein, UniProt Q7ZWK8 1-586, looked up)
chain: MVEHGGTDSMWLNKYNPAAASSASSSSSSDAENKLFSRLKVSLTKKYPQKNAELLSAQYGTNLLLLGVSVMLALAAQSGPVKEEHLLSFITVLMLVQLVWMLCYMIRRERERSPVPERDAHAGASWIRGGLTMLALLSLIMDAFRIGYFVGYHSCISAALGVYPIVHALHTISQVHFLWFHIKDVIKKYETFERFGVIHAVFTNLLLWCNGVMSETEHFMHNHRRRLIEMGYANLSTVDVQPHCNCTTSVCSMFSTSLYYLYPFNIEYHIFVSAMLFVMWKNIGRTLDRHSNRKRRSTGSTGLLLGPLGGLVALASSVSVLVVYLIHLEKTEEMHEAAVSMFYYYGVAMMACMCVGSGTGLLVYRMENRPMDTGSNPARTLDTELLLASSLGSWLMSWCSVVASVAEAGQKSPSFSWTSLTYSLLLVLEKCIQNLFIVESLYRRHSEEEEDAAAPQVFSVAVPPYDGILNHGYEAHDKHREAEPAAGSHALSRKQPDAPLPAGQRLDVTPGRKRQILKNICMFLFMCNISLWILPAFGCRPQYDNPLENETFGTSVWTTVLNVAIPLNLFYRMHSVASLFEVFRKV
As to B1, the “stoichiometry N” value in the data set “cryo-EM structure” stood at 2.

The record behind these values is publication PMC6564688 (Nature structural & molecular biology, 2019).
